# From the supplement of paper PMC9170038
# System: MS2 coat protein
# Experiment: apparent KD of MS2 coat protein; designed switch direction (-1 OFF switch, 1 ON switch): 1; higher = weaker reporter binding
# Method in brief: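 Stalled E. coli RNA polymerase transcribed designed RNA switches on Illumina chips, which were then titrated with SNAP-549-labelled MS2 coat protein, doubling from 0.7 or 1.5 nM to 3 µM. Steps lasted from 0.8–1.5 h at the lowest concentration to 10–20 min at the highest. The apparent KD is each design's median over clusters of curve-fitted normalised fluorescence.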
# [1] = Eterna round: R95, input ligand: FMN 200 uM
# [2] = Eterna round: R95, input ligand: microRNA oligo, concentration not stated
# [3] = Eterna round: R95, input ligand: none
# [4] = input ligand: microRNA oligo, concentration not stated
Sequence,apparent KD of MS2 coat protein [1] [nM],apparent KD of MS2 coat protein [2] [nM],apparent KD of MS2 coat protein [3] [nM],apparent KD of MS2 coat protein (input ligand: FMN 200 uM) [nM],apparent KD of MS2 coat protein [4] [nM],apparent KD of MS2 coat protein (input ligand: none) [nM]
AUAAAACAUGAGGAUCACCCAUGUCAACAAAUUCGAGGAUAUGGGCAAAUAAAAUAAGAACCAGAAGGCGAAUAAU [salish99_ss1_r3_038] (puzzle: Same State 1),18.1,104,86.1,,,
"AUAAACAGGCUAGGAUAUCCGGAAACUACAGGGCACGACCCUGUGGACAUGAGGAUCACCCAUGUGGAGAAGGAGCCACAUGAA [Edlatibi] (Eterna round: R96, puzzle: Same State NG 2)",,,,15.1,108,152
"AUAAGAAACACAGGAUAUACCGCACUUAACGCGGUAGAAGGGUGGGACAUGAGGAUCACCCAUGUGGCCCGGGCGCCGGACCGC [Edquzative] (Eterna round: R96, puzzle: Same State NG 1)",,,,556,10,122
AUAAGUUCGAUGCUCGUCUCUCCGUACAAACAUGAGGAUCACCCAUGUGGUCAGGAAGUAGCCCGACCAGUAUGGCC [Leedqu] (puzzle: Sensor for hsa-mir-208a),29,24.6,34,,,
"AUAAUACAUGAGGAUCACCCAUGUAAUUUAACUUGUAAGAUCAAGGAUAUCAGCUCGAAUAGAGCUGAGAAGGUGAUCACAUGU [SSNG3/20-A1] (Eterna round: R96, puzzle: Same State NG 3)",,,,,70.7,
"AUACAUGAGGAUCACCCAUGUAAUUAAUUAACUAGUAAGAUCUAGGAUAUCAGCUCGUUUAGAGCUGAGAAGGAGAUCACAUGU [SSNG3/21-A3] (Eterna round: R96, puzzle: Same State NG 3)",,,,,28.8,
"AUACCGUGCCAAGGAUAUGGUGUAAACACAUGAGGAUCACCCAUGUCAGAGAGUCGAGCGACUAGCUAGAAGGUGGUAUGGGAA [Eternabot solution 9] (Eterna round: R96, puzzle: Same State NG 2)",,,,112,149,393
"AUAGUUUCCGAAGGAUAUGAUGAGGAUCACCCAUCAGAAGGUUGGCUAUUGGGCUGACAUGAGGAUCACCCAUGUUCCGGUGUU (Eterna round: R96, puzzle: Same State NG 1)",,,,33.7,31.9,43.3
"AUCAUUAAUGCAGGAUAUGAUUAACAUGAGGAUCACCCAUGUGGUGUUGUGAGUAAGGAGAGUGAUCAGAAGGGCAUUUUUUUU [JMF's solution 35] (Eterna round: R96, puzzle: Same State NG 2)",,,,699,292,469
AUCCUACAUGAGGAUCACCCAUGUGACGCCUCAAUAGGAUAUGCGUGUGCCUUGGCGCAUGCAGAAGGAUUGAAGC [JL Aveso mod 1] (puzzle: Same State 1),,295,,,,
"AUGAAGAAUUAAGGAUAUUGAUUACAUAUGUUUAACAUGAGGAUCACCCAUGUGGGUUGCGGUAUCGAGAAGGUAAAUUAAUAG [Mat - same State NG 2 - JL mod - D84] (Eterna round: R96, puzzle: Same State NG 2)",,,,187,129,196
"AUGAAUUUGCGAGGAUAUCGUUUGUUGAAGUUACGAGAAGGCGCUCACUUUACAUGAGGAUCACCCAUGUUUAUGAUAUAUGAU [JR_SSNG1_Sub074] (Eterna round: R96, puzzle: Same State NG 1)",,,,24.1,30,37.1
AUUAAACAUGAGGAUCACCCAUGUCAACAAAGUCGAGGAUAUGGGCAAAUUAAAUAAGAACCAGAAGGCGAAUAAU [salish99_ss1_r3_060] (puzzle: Same State 1),35.9,189,269,,,
"AUUAAUUAAUUAAUACAUGAGGAUCACCCAUGUAAUAAGAUCAAGGAUAUCAGCUCGAAUAGAGCUGAGAAGGUGAUCACAUGU [SSNG3/17-B1] (Eterna round: R96, puzzle: Same State NG 3)",,,,,337,
